Measured values reported in patent publication US20150166606A1 (RA PHARMACEUTICALS, published 2015).
Bridge positions count the residues as written; N and C are the ends. Square brackets hold non-standard residues; d marks the D form. Ends that are not written are not given here. mXylyl = xylyl linker from dibromoxylene joining the two cysteines; NMeW = CN[C@@H](Cc1c[nH]c2ccccc12)C(=O)O; NMeY = CN[C@@H](Cc1ccc(O)cc1)C(=O)O; NMeT = CN[C@H](C(=O)O)[C@@H](C)O; NMeS = CN[C@@H](CO)C(=O)O; NMeA = CN[C@@H](C)C(=O)O

Molecular target: T1, Activated human plasma kallikrein (Enzyme Research Laboratories, HPKa 1303) (human, UniProt P03952 20-638)
Experiment: cell-based or functional assay

T1 sequence (P03952 20-638 limits assumed): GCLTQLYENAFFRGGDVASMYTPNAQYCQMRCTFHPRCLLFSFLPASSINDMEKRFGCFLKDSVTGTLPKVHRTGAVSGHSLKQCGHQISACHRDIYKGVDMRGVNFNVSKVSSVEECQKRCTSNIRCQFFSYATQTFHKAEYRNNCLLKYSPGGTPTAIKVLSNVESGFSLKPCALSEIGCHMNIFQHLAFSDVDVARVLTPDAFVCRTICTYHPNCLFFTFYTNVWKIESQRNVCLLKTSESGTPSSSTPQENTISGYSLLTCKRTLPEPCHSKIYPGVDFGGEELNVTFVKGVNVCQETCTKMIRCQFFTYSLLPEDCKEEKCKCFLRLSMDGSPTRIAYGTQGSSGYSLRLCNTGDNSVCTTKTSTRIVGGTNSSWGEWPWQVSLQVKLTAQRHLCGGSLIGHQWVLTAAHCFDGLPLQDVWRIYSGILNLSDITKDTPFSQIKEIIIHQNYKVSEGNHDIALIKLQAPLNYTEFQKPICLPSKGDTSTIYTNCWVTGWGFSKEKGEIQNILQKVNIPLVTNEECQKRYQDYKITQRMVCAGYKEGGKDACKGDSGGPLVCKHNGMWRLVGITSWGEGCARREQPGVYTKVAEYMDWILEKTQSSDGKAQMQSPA

Row | Binder | Avg. IC50 [nM]
1 | Ac-CNYWSPWTAA-NH2 [R2144] | 95.5
2 | Ac-ANYWSPWTAC-NH2 [R2143] | 48.4
3 | Ac-CNYWSPWAAC-NH2 (cysteine pairing not given here) [R2146] | 17.5
4 | Ac-ANYWSPWTAA-NH2 [R2145] | 58.8

Molecular target: T1, Activated human plasma kallikrein …
Experiment: cell-based or functional assay
Remark: another data set of the same source

Row | Binder | Avg. IC50 [nM]
5 | Ac-CN[dY]WSPWTAC-NH2 (cysteine pairing not given here) [R2232] | > 1950
6 | CNYWSPWTAA (also: Cyclo(1,10): ring between residues 1 and 10, bond kind not given here) [R2222] | 926
7 | Ac-CNY[NMeW]SPWTAC-NH2 (cysteine pairing not given here) [R2238] | > 4520
8 | Ac-CNYW[NMeS]PWTAC-NH2 (cysteine pairing not given here) [R2237] | > 13900
9 | Ac-CNYWSPW[dT]AC-NH2 (cysteine pairing not given here) [R2227] | 323
10 | Ac-CNYWSP[dW]TAC-NH2 (cysteine pairing not given here) [R2228] | > 10600
11 | Ac-CNYWSPWTA[dC]-NH2 (cysteine pairing not given here) [R2225] | 8.1
12 | Ac-CN[NMeY]W[NMeS]PW[NMeT]AC-NH2 (linker 1-10 via mXylyl) [R2223] | > 100000
13 | Ac-CN[NMeY]W[NMeS]PW[NMeT]AC-NH2 (disulfide 1-10) [R2224] | > 100000
14 | Ac-CNYWSPW[NMeT]AC-NH2 (cysteine pairing not given here) [R2235] | 101
15 | Ac-CNYWSPWT[NMeA]C-NH2 (cysteine pairing not given here) [R2234] | 2.7
16 | Ac-CNYWSPWT[dA]C-NH2 (cysteine pairing not given here) [R2226] | 222
17 | Ac-C[dN]YWSPWTAC-NH2 (cysteine pairing not given here) [R2233] | 305
18 | Ac-CNY[dW]SPWTAC-NH2 (cysteine pairing not given here) [R2231] | 760
19 | Ac-CNYW[dS]PWTAC-NH2 (cysteine pairing not given here) [R2230] | > 6580
20 | Ac-CNYWSP[NMeW]TAC-NH2 (cysteine pairing not given here) [R2236] | > 4900
21 | Ac-CNYWS[dP]WTAC-NH2 (cysteine pairing not given here) [R2229] | > 14300
